The target of test [1] is T1, porcine pancreatic lipase (Sus scrofa, UniProt P00591).
T1 construct: purchased Sigma Co., Ltd
T1 sequence (P00591 1-450): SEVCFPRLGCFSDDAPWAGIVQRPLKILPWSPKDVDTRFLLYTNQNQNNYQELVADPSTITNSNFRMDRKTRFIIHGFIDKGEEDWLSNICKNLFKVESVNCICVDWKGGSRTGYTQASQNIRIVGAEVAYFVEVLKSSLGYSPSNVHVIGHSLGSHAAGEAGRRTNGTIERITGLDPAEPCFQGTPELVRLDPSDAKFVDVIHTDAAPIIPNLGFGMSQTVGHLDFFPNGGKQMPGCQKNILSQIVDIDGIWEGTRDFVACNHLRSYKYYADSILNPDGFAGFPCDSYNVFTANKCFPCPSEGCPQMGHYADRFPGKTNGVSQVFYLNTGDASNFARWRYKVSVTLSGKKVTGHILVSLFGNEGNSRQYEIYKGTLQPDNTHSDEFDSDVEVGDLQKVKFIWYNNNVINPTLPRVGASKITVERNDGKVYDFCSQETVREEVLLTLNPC
Kind of test: Assay of lipase inhibitory activity (olive oil emulsion with sodium cholate, Tris buffer pH 6.8). The format is biochemical. The following applies: for Activity of porcine pancreatic lipase: peptide solution 1 mg/ml in distilled water, control = 100. The procedure:
250 mg of an olive oil, 21.5 mg of sodium cholate as a bile acid component and 30 mg of phosphatidylcholine were added to 5 ml of a 200 mM Tris buffer solution at pH 6.8 (called hereafter "Tris buffer").
(§1) The mixture was ultrasonicated to prepare an olive oil emulsion.
Porcine pancreatic lipase (manufactured by Sigma Co., Ltd.) was added to Tris buffer to prepare an enzyme solution containing 100 units porcine pancreatic lipase per ml.
(§2) 100 μl of an olive oil emulsion as prepared above were used as a substrate.
(§3) 50 μl of Tris buffer was added to the substrate to prepare an emulsion for control sample. Each 50 ml of the protein(polypeptide)-containing solutions as prepared above was added to 100 μl of the substrate to prepare six emulsions for test sample. All of the emulsions were incubated for 5 min. To each of those emulsions was added 50 μl of the lipase solution as prepared above. The resulting mixture was incubated at 37° C. for one hour, subsequently to which were added 3 ml of the same extraction solvent as used in Example 1. After being shaken for 5 min., the mixture was centrifuged at 3000 rpm for 5 min. The upper layer was removed with an aspirator and to the remaining solution was added 1 ml of the same copper reagent as used in Example 1. The mixture was shaken for 5 min. and centrifuged at 3000 rpm for 5 min. 0.5 ml of a solution was taken from the upper layer and to the solution was added 0.5 ml of the same color developing agent as used in Example 1.
The resulting solutions for control and test samples were measured for the absorbance at 480 nm (A480) using a photometer to determine the amount of the free fatty acids as formed, i.e., the activity of the porcine pancreatic lipase. […]
Lysine oligomers having a degree of polymerization of 2-5 as shown in Table 6 below were prepared using a peptide synthesizer (Biolynx 4170, LKB-Pharmacia Co., Ltd.). Each of the oligomers was purified by high performance liquid chromatography. Each of the purified oligomers was added to distilled water to make up to 1 μmol/ml. […] lysine oligomer-containing solutions were thus prepared.
50 μl of Tris buffer was added to the substrate to prepare an emulsion for control sample. Each 50 μof the lysine oligomer-containing solutions as prepared above was added to 100 μl of the substrate to prepare six emulsions for test sample. After incubating the emulsions for 5 min., there was added 50 μl of a lipase solution containing 100 units of porcine pancreatic lipase per ml as prepared in the same way as in Example 4. The resulting mixture was incubated at 37 ° C. for one hour.

Test [2] concerns the target T1, porcine pancreatic lipase. Kind of test: Assay of lipase inhibitory activity of proteins (olive oil emulsion with sodium cholate, potassium phosphate buffer pH 6.8). The format is biochemical. The following applies: for Activity of porcine pancreatic lipase (%): protein solution 4 mg/ml, % of control Abs480, sodium cholate present, 37° C., one hour; for Activity of porcine pancreatic lipase: % of control. As to the method: 250 mg of an olive oil, 21.5 mg of sodium cholate as a bile acid component and 30 mg of phosphatidylcholine were added to 5 ml of a 300 mM potassium phosphate buffer solution at pH 6.8 (called hereafter "potassium phosphate buffer").
as §1
Porcine pancreatic lipase (manufactured by Sigma Co., Ltd.) was added to the potassium phosphate buffer solution to prepare a lipase solution containing 100 units porcine pancreatic lipase per ml.
as §2
50 μl of potassium phosphate buffer was added to the substrate to prepare an emulsion for control sample. Each 50 μl of the protein(polypeptide)-containing solutions as prepared above was added to 100 μl of the substrate to prepare six emulsions for test samples. All of the emulsions were incubated for 5 min. To each of those emulsions was added 50 μl of the lipase solution as prepared above. The resulting mixture was incubated at 37° C. for one hour, subsequently to which were added 3 ml of an extraction solvent (chloroform:methanol:n-heptane=49:1:49). After being shaken for 5 min., the mixture was centrifuged at 3000 rpm for 5 min. The upper layer was removed with an aspirator and to the remaining solution was added 1 ml of a copper reagent (0.45M triethanol amine, 0.05N acetic acid, 3,4% copper sulfate pentahydrate and 20% sodium chloride). The mixture was shaken for 5 min. and centrifuged at 3000 rpm for 5 min. 0.5 ml of a solution was taken from the upper layer and to the solution was added 0.5 ml of a color developing agent (a solution of 0.1% bathocuproine and 0.05% butyl hydroxyanisole in the above extraction solvent).
The resulting solutions for control and test samples were measured for the absorbance at 480 nm (A480) using a photometer to determine the amount of the free fatty acids as formed, i.e., the activity of the porcine pancreatic lipase.

Test [3] concerns the target cholesterol esterase isolated from porcine pancreas (Sus scrofa, UniProt A0A286ZKB1). The following applies: protein solution 4 mg/ml; % of control Abs480; sodium cholate present; 37° C., one hour. The procedure: as §2
as §3, with “potassium phosphate” for “Tris”, “Each 50 ml of the protein(polypeptide)-containing solutions as prepared above was added to 100 μl of the substrate to prepare six emulsions for test sample.” left out

The target in test [4] is Porcine pancreatic lipase (porcine) (UniProt P00591).
Test [5] has as its target Cholesterol esterase isolated from porcine pancreas (porcine).
The target in test [6] is Porcine pancreatic lipase (porcine) (UniProt P00591). This is another data set of the same source.
Test [7] has the same target. The source holds these as a separate data set.
For test [8] the target is unchanged. This is another data set of the same source.
[9] abbreviates: lysine oligomer solution 1 μmol/ml, % of control.
The mark [10] stands for this setting: solution of 1 mg in 10 ml Tris buffer, % of control Abs480, sodium cholate present.

Read-outs that look alike come from different tables or passages of the source. Where a SMILES comes first, the peptide text is derived from it. Where no end group is shown, it is not given here.

Sequence of cholesterol esterase isolated from porcine pancreas (A0A286ZKB1 1-682): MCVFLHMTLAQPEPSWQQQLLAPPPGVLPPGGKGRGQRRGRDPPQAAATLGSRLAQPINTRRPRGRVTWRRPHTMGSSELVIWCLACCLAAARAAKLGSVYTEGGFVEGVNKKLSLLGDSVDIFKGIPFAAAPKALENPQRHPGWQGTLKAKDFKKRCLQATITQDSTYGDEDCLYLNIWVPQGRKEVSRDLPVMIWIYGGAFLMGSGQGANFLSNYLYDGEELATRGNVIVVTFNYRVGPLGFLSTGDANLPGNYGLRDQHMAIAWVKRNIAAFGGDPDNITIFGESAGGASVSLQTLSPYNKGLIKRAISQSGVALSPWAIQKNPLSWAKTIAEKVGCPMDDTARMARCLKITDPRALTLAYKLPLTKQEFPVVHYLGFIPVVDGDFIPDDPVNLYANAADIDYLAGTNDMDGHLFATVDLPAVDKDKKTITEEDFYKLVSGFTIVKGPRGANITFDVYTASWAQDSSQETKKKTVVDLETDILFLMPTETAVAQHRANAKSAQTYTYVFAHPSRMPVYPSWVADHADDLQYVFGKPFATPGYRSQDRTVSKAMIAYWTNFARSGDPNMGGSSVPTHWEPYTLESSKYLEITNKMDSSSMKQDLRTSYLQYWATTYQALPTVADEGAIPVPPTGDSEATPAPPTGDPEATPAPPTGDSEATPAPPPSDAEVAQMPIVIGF

For the molecule KKKKK [α-(L-lysine)5], the “Activity of porcine pancreatic lipase (%)” value in test [1] (setting [9]) was found to be 2.1%. With “β-Lactoglobulin: β-lactoglobulin (L0130, Sigma Co., Ltd.), non-basic comparison protein [reference compound]”, in test [2], the “Activity of porcine pancreatic lipase (%)” value is reported as 103.9%. The “Activity of cholesterol esterase (%)” value in test [3] came out at 89.9%. In the case of “Bovine serum albumin (A7030, Sigma Co., Ltd., U.S.A.) (from UniProt P02769)”, the Activity of porcine pancreatic lipase (%) in test [4] is 105 % of control. For the same molecule, the Activity of cholesterol esterase (%) in test [5] is 120 % of control. On the same counts, the results for “Ovalbumin (A5503, Sigma Co., Ltd.) (from UniProt P01012)” are 107 % of control and 93.6 % of control. Regarding “β-Purothionin: purified β-purothionin (SEQ ID NO:3) isolated from the crude wheat purothionin mixture; misprinted α-Purothionin in Table 3 (KSCCKSTLGRNCYNLCRARGAQKLCANVCRCKLTSGLSCPKDFPK)”, the “Activity of porcine pancreatic lipase” value in test [2] (concentration of 0.04 mg/ml, separate experiment) is reported as 5.2%; in test [2] (solution diluted to protein concentration of 0.2 mg/ml) it was 0%. The “Activity of porcine pancreatic lipase (%)” value in test [2] turned out to be 0%; in test [1] (setting [10]), 1.3%.

With ε-(L-lysine)5 (SEQ ID NO: 7) (peptide), in test [6], the Activity of porcine pancreatic lipase (%) was 3.1 % of control. Consider `NCCCC[C@H](NC(=O)[C@H](CCCCN)NC(=O)[C@H](CCCCN)NC(=O)[C@@H](N)CCCCN)C(=O)O` [α-(L-lysine)4] (H-KKKK-OH), for which the “Activity of porcine pancreatic lipase (%)” value in test [1] (setting [9]) was found to be 103.8%. Take α-poly-L-lysine hydrochloride: the “Activity of porcine pancreatic lipase” value in test [1] was 1.6. The “Activity of porcine pancreatic lipase (%)” value in test [1] (setting [10]) was 6.9%.

As for Protamine, the “Activity of porcine pancreatic lipase (%)” value in test [1] (setting [10]) is reported as 1.3%.

Take `NCCCC[C@H](N)C(=O)NCCCC[C@H](N)C(=O)NCCCC[C@H](N)C(=O)O` [ε-(L-lysine)3]: the “Activity of porcine pancreatic lipase (%)” value in test [1] (setting [9]) was determined as 89.0%. As for Histone H3 (H4380, Sigma Co., Ltd.), the Activity of porcine pancreatic lipase (%), Tris buffer in test [7] is 2.3 % of control. As for “β-lactoglobulin (L0130, Sigma Co., Ltd.) (from UniProt P02754)”, the Activity of porcine pancreatic lipase (%) in test [4] was 104 % of control. Also, in test [5], the Activity of cholesterol esterase (%) was 89.9 % of control. On to “Protamine (P4005, Sigma Co., Ltd., U.S.A.)”, for which the Activity of porcine pancreatic lipase (%), Tris buffer in test [7] is 1.3 % of control. Turning to Histone H2A (H6881, Sigma Co., Ltd.), the Activity of porcine pancreatic lipase (%), Tris buffer in test [7] is 3.7 % of control. For ε-(L-lysine)4 (SEQ ID NO: 6) (peptide), in test [6], the Activity of porcine pancreatic lipase (%) was 53.8 % of control. Consider `NCCCC[C@H](NC(=O)[C@@H](N)CCCCN)C(=O)O` [α-(L-lysine)2], for which the “Activity of porcine pancreatic lipase (%)” value in test [1] (setting [9]) stood at 103.6%.

Take “Poly-L-arginine (P3892, Sigma Co., Ltd.) (peptide)”: the Activity of porcine pancreatic lipase (%), Tris buffer in test [7] was 16.5 % of control. On to “α-poly-L-lysine (3075, Peptide Research Co., Ltd.)”, for which, in test [8], the Activity of porcine pancreatic lipase (Example 6, 1 mg/ml solution) is 1.6 % of control. Moreover, in test [7], the Activity of porcine pancreatic lipase (%), Tris buffer was 6.9 % of control. On to α-poly-D-lysine hydrobromide, for which, in test [1], the “Activity of porcine pancreatic lipase” value was 1.1.

`NCCCC[C@H](N)C(=O)NCCCC[C@H](N)C(=O)NCCCC[C@H](N)C(=O)NCCCC[C@H](N)C(=O)NCCCC[C@H](N)C(=O)O` [ε-(L-lysine)5]: the “Activity of porcine pancreatic lipase (%)” value in test [1] (setting [9]) worked out at 3.1%. poly-L-arginine: the “Activity of porcine pancreatic lipase (%)” value in test [1] (setting [10]) came to 16.5%. With α-(L-lysine)2 (peptide), the Activity of porcine pancreatic lipase (%) in test [6] is 104 % of control. On to ε-(L-lysine)3 (peptide), for which, in test [6], the Activity of porcine pancreatic lipase (%) is 89 % of control.

As for α2-purothionin (SEQ ID NO:2) (peptide), in test [4], the Activity of porcine pancreatic lipase (%) is 0 % of control. As for “α-poly-D-lysine hydrobromide (P7886, Sigma Co., Ltd.) (peptide)”, the Activity of porcine pancreatic lipase (Example 6, 1 mg/ml solution) in test [8] was 1.1 % of control. Regarding `NCCCC[C@H](N)C(=O)NCCCC[C@H](N)C(=O)NCCCC[C@H](N)C(=O)NCCCC[C@H](N)C(=O)O` [ε-(L-lysine)4], the “Activity of porcine pancreatic lipase (%)” value in test [1] (setting [9]) came to 53.8%.

B1: α-(L-lysine)4 (SEQ ID NO: 4) (peptide)
peptide: KKKK
With B1, in test [6], the Activity of porcine pancreatic lipase (%) was 104 % of control.

B2: Ovalbumin: ovalbumin (A5503, Sigma Co., Ltd.), non-basic comparison protein (protein, UniProt P01012 2-386, looked up)
Ovalbumin: GSIGAASMEFCFDVFKELKVHHANENIFYCPIAIMSALAMVYLGAKDSTRTQINKVVRFDKLPGFGDSIEAQCGTSVNVHSSLRDILNQITKPNDVYSFSLASRLYAEERYPILPEYLQCVKELYRGGLEPINFQTAADQARELINSWVESQTNGIIRNVLQPSSVDSQTAMVLVNAIVFKGLWEKAFKDEDTQAMPFRVTEQESKPVQMMYQIGLFRVASMASEKMKILELPFASGTMSMLVLLPDEVSGLEQLESIINFEKLTEWTSSNVMEERKIKVYLPRMKMEEKYNLTSVLMAMGITDVFSSSANLSGISSAESLKISQAVHAAHAEINEAGREVVGSAEAGVDAASVSEEFRADHPFLFCIKHIATNAVLFFGRCVSP
Take B2: in test [2], the “Activity of porcine pancreatic lipase (%)” value is listed as 107.0%. Moreover, the “Activity of cholesterol esterase (%)” value in test [3] was 93.6%.

B3: α-(L-lysine)5 (SEQ ID NO: 5) (peptide)
peptide: KKKKK
On to B3, for which the Activity of porcine pancreatic lipase (%) in test [6] is 2.1 % of control.

The values above are taken from patent US5376640A, “Lipolytic enzyme inhibitors” (Nisshin Flour Milling Co., Ltd., priority 1989, dated 1994).
